Reference: patent US20150056222A1

Molecular target: mouse PRLR on HEK293 cells (mouse) (UniProt Q08501)
Assay: FACS, HEK293/mPRLR cells

Sequence of mouse PRLR on HEK293 cells (mouse) (Q08501 20-608): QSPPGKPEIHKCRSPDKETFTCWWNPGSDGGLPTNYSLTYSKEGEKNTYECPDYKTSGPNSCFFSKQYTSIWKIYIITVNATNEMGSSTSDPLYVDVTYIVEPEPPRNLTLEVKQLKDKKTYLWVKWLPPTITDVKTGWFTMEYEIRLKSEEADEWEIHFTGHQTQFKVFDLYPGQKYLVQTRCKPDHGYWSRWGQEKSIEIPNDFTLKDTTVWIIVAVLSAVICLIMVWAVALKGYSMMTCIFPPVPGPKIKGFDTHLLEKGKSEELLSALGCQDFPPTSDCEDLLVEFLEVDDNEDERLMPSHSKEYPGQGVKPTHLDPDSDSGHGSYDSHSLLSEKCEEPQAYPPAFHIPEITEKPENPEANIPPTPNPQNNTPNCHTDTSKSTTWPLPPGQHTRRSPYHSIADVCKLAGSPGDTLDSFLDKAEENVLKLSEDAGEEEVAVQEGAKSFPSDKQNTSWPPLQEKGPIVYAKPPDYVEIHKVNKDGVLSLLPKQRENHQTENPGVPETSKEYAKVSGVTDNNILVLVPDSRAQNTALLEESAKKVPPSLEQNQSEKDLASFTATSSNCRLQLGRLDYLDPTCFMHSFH

FACS Cell Binding (Fold Above Background) (fold above background): 1
Substance: Isotype Ctrl I (antibody)
